Source: patent publication US20260193326A1 (published 2026)
Where a chain is given by its changes, count along the chain named.

B1: A4-055 (VHH)
VHH: VQLQESGGGLVQPGGSLRLSCAASGSIFSINTMGWYRQAPGKQRELVAAVTRGGSTNYADSVKGRFTISRDNAKNTVYLQMNSLRPEDTAVYYCHVDEVRQSSWTTSNLWGQGTQVTVSS
B2: A4-070 (VHH)
VHH: B1 VHH with T32S, Q43W, A49T, D60N, S83T, V96L, Q101D
B3: A4-073 (VHH)
VHH: B1 VHH with I27N, L46M, A49T, A59G, S61F, V99I, L109I
B4: A4-057 (VHH)
VHH: B1 VHH with L46K
B5: A4-059 (VHH)
VHH: B1 VHH with L10A, I27H, I30L, Q38R, A49T, V77I, S103T
B6: A4-066 (VHH)
VHH: B1 VHH with P13T, S26R, I27A, I30L, A49T, D60G, Q101E
B7: A4-061 (VHH)
VHH: B1 VHH with I27R, I30L, A49T, D60N, S103T
B8: A4-065 (VHH)
VHH: B1 VHH with P13S, S26R, I27N, I30L, M33V, A49T, D60G, Q101E
B9: A4-060 (VHH)
VHH: B1 VHH with I27T, I30L, L46I, A49T, D60E, S103T
B10: A4-053 (VHH)
VHH: B1 VHH with S29I, Q38R
B11: A4-052 (VHH)
VHH: B1 VHH with S29I
B12: A4-063 (VHH)
VHH: B1 VHH with S26R, I27R, S29T, Q38R, A49T, V50I, D60G, A73P, V96I
B13: A4-062 (VHH)
VHH: B1 VHH with P13A, I27S, T32A, A49T, S55T, A73P, V96L, Q101E
B14: A4-058 (VHH)
VHH: B1 VHH with G41A, L46I, A49T, G53D, D60E, V96L, S103T
B15: A4-069 (VHH)
VHH: B1 VHH with S29T, T32S, Q43W, A49T, S55N, D60N, S83T, V96L, Q101D
B16: A4-050 (VHH)
VHH: B1 VHH with I27S, S29V
B17: A4-043 (VHH)
VHH: B1 VHH with S26R, I27A, A49T, G53D, D60G
B18: A4-033 (VHH)
VHH: B1 VHH with A22V, I27S, Q38R, A49T, G53D, D60N
B19: A4-035 (VHH)
VHH: B1 VHH with P13A, S26R, I27G, S55T
B20: A4-045 (VHH)
VHH: B1 VHH with I27S, S55V
B21: A4-049 (VHH)
VHH: B1 VHH with I27M, S55N, D60G
B22: A4-041 (VHH)
VHH: B1 VHH with S26R, I27G, A49T, D60N, V99L
B23: A4-042 (VHH)
VHH: B1 VHH with S26R, I27A, A49T, G53D
B24: A4-040 (VHH)
VHH: B1 VHH with S26R, A49T, V99I
B25: A4-037 (VHH)
VHH: B1 VHH with A49T, D60G, V96L, L109I
B26: A4-036 (VHH)
VHH: B1 VHH with V11A, P13A, S26R, I27G, S55T

molecular target: T1, AAV8 (adeno-associated virus 8); assay: SPR, AAV amine-coupled to CM5 chip;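 further: nanobodies flowed as analyte at seven concentrations spanning 1–100 nM over immobilized AAV (500–800 RU), kinetic constants derived by fitting the binding curves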
T1 construct: also called adeno-associated virus serotype 8
Experimental: (§1) AAV was amine-coupled to a CM5 sensor chip at a density of 500-800 response units (RU). Nanobodies were injected at seven concentrations (1-100 nM) with a flow rate of 45 μL/min, and chip regeneration was performed using glycine-HCl (pH 1.5). Binding curves at different nanobody concentrations were used to calculate kinetic parameters (Kₐ, Kd, KD) (Table 2 and FIG. 2).

| Binder | Kd [nM] | koff [s⁻¹] | kon [M⁻¹ s⁻¹] |
| --- | --- | --- | --- |
| B1 | 2.23 | 0.00044 | 198000 |
| B2 | 20.9 | 0.00019 | 9090 |
| B3 | 1140 | 0.00619 | 5420 |
| B4 | 103 | 0.00031 | 3020 |
| B5 | 29 | 0.00094 | 32500 |
| B6 | 21.6 | 0.002 | 92400 |
| B7 | 530 | 0.00057 | – |
| B8 | 184 | 0.00095 | 5180 |
| B9 | 6.63 | 0.00055 | 82900 |
| B10 | 15.7 | 0.00146 | 93200 |
| B11 | 47.6 | 0.00151 | – |
| B12 | 439 | 0.0065 | 14800 |
| B13 | 1.39 | 0.00019 | 137000 |
| B14 | 33.4 | 0.00173 | 51800 |
| B15 | 11.6 | 0.00142 | 122000 |

molecular target: T2, AAV9 (adeno-associated virus 9); assay: SPR, AAV amine-coupled to CM5 chip;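 further: nanobodies flowed as analyte at seven concentrations spanning 1–100 nM over immobilized AAV (500–800 RU), kinetic constants derived by fitting the binding curves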
T2 construct: also called adeno-associated virus serotype 9
Experimental: as §1

| Binder | Kd [nM] | koff [s⁻¹] | kon [M⁻¹ s⁻¹] |
| --- | --- | --- | --- |
| B1 | 4.06 | 0.00032 | 78800 |
| B2 | 35.5 | 0.00012 | 3380 |
| B3 | 1880 | 0.00292 | 1560 |
| B4 | 53.3 | 0.00049 | 9190 |
| B5 | 0.514 | 6e-05 | 117000 |
| B6 | 32.8 | 0.00101 | 30700 |
| B7 | 273 | 0.0013 | 4770 |
| B8 | 8.44 | 0.00139 | 165000 |
| B9 | 69.2 | 0.00176 | 25400 |
| B10 | 2.6 | 0.00048 | 185000 |
| B11 | 7.38 | 0.00077 | 104000 |
| B12 | 81.6 | 0.00401 | 49100 |
| B13 | 1.83 | 6e-05 | 32800 |
| B14 | 6.11 | 0.0012 | 196000 |
| B15 | 9.34 | 0.00098 | 105000 |

molecular target: T3, AAV5 (adeno-associated virus 5); assay: SPR, AAV amine-coupled to CM5 chip;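 further: nanobodies flowed as analyte at seven concentrations spanning 1–100 nM over immobilized AAV (500–800 RU), kinetic constants derived by fitting the binding curves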
T3 construct: also called adeno-associated virus serotype 5
Experimental: as §1

| Binder | Kd [nM] | koff [s⁻¹] | kon [M⁻¹ s⁻¹] |
| --- | --- | --- | --- |
| B1 | 1.11 | 0.00022 | 198000 |
| B2 | 86.8 | 0.00064 | 7370 |
| B3 | 1140 | 0.00862 | 7530 |
| B4 | 64.4 | 0.00027 | 4200 |
| B5 | 16.6 | 0.00091 | 54900 |
| B6 | 20.7 | 0.00191 | 92100 |
| B7 | 86.8 | 0.00055 | 6330 |
| B8 | 25 | 0.00155 | 61900 |
| B9 | 2.45 | 0.00045 | 184000 |
| B10 | 7.52 | 0.00121 | 161000 |
| B11 | 388 | 0.00056 | 1440 |
| B12 | 128 | 0.00834 | 65000 |
| B13 | 0.0635 | 1e-05 | 157000 |
| B14 | 24.5 | 0.00129 | 52600 |
| B15 | 3.58 | 0.0002 | 55800 |

molecular target: T4, AAV9; assay: SPR, AAV on CM5 chip;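 further: surface plasmon resonance with AAV amine-coupled to the chip as ligand, nanobodies injected as analyte over a concentration series, rate constants and affinity fitted from binding curves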
T4 construct: also called adeno-associated virus serotype 9
Experimental: as §1

| Binder | Kd [nM] | koff [s⁻¹] | kon [M⁻¹ s⁻¹] |
| --- | --- | --- | --- |
| B16 | 2.52 | 0.00049 | 194000 |
| B17 | 0.278 | 4e-05 | 144000 |
| B18 | 199 | 0.00045 | 2270 |
| B19 | 1.73 | 0.0001 | 57800 |
| B20 | 37.6 | 0.00027 | 7190 |
| B21 | 93.1 | 0.00194 | 20800 |
| B22 | 8.15 | 0.00142 | 174000 |
| B23 | 308 | 0.00144 | 4680 |
| B24 | 2.19 | 0.00022 | 101000 |
| B25 | 4.07 | 0.0004 | 98300 |
| B26 | 1620 | 0.00944 | 5810 |

molecular target: T5, AAV8; assay: SPR, AAV on CM5 chip;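 further: surface plasmon resonance with AAV amine-coupled to the chip as ligand, nanobodies injected as analyte over a concentration series, rate constants and affinity fitted from binding curves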
T5 construct: also called adeno-associated virus serotype 8
Experimental: as §1

| Binder | Kd [nM] | koff [s⁻¹] | kon [M⁻¹ s⁻¹] |
| --- | --- | --- | --- |
| B16 | 2.44 | 0.00043 | 176000 |
| B17 | 5.45 | 0.00104 | 191000 |
| B18 | 89.2 | 0.00034 | 3810 |
| B19 | 1.31 | 0.00017 | 130000 |
| B20 | 1.07 | 1e-05 | 9390 |
| B21 | 20.8 | 0.00056 | 26900 |
| B22 | 1980 | 0.00245 | 1240 |
| B23 | 125 | 0.00042 | 3360 |
| B24 | 1.71 | 0.00028 | 164000 |
| B25 | 11.6 | 0.0015 | 129000 |
| B26 | 336 | 0.00225 | 6700 |

molecular target: T6, AAV5; assay: SPR, AAV on CM5 chip;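 further: surface plasmon resonance with AAV amine-coupled to the chip as ligand, nanobodies injected as analyte over a concentration series, rate constants and affinity fitted from binding curves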
T6 construct: also called adeno-associated virus serotype 5
Experimental: as §1

| Binder | Kd [nM] | koff [s⁻¹] | kon [M⁻¹ s⁻¹] |
| --- | --- | --- | --- |
| B16 | 7 | 7e-05 | 10000 |
| B17 | 7.73 | 0.00028 | 36200 |
| B18 | 243 | 0.002 | 8220 |
| B19 | 2.52 | 0.0005 | 199000 |
| B20 | 41.3 | 0.00037 | 8950 |
| B21 | 9.61 | 0.00158 | 164000 |
| B22 | 45.9 | 0.00616 | 134000 |
| B23 | 152 | 0.00118 | 7760 |
| B24 | 3.04 | 0.00022 | 72300 |
| B25 | 0.88 | 0.00012 | 136000 |
| B26 | 810 | 0.00621 | 7670 |
